{"source": "the nanobody polyreactivity screen of Harvey et al. (2022)"}
{"experiment": "yeast display, Sf9 membrane polyspecificity reagent, FACS + sequencing; frameworks hold sequencing errors", "in_short": "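Genes from sorted yeast were amplified by colony PCR, read by MiSeq 2 × 250 sequencing and filtered on CDR length. These cells carried a synthetic nanobody library in Saccharomyces cerevisiae BJ5465 and were sorted by FACS into low and high (top ~1%) gates on anti-HA and streptavidin fluorescence. Polyreactivity is labelled according to the gate of origin.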"}
{"sequence": "QVQLVESAGGLVQAGGSLSLSCAATGITFPYVMGWYRQAPGKQRELVAAISRTGTSTYYADSVKGRFTISRDNAKNTVYLQMNSLKPEDTAVYYCAARTQTQVYPAYGYWGQGTQVTVSS", "polyreactivity (PSR sort gate)": "high polyreactivity"}
{"sequence": "QVQLVESGGGLVQAVGSLRLSCAASGSISVYYAMGWYRQAPGKEMELVAAISRSGGRTYYADSVKGRFTISRDNAKNTVYLQMNSLKPEDTAVYYCAAGYSSLRRFGVYYWGQGTQVTVSS", "polyreactivity (PSR sort gate)": "high polyreactivity"}
{"sequence": "QVQLVESGGGLVQAGGSLRLSCAASGFTFYTYFMGWYRPAPGKERELVAAITSGVSTNYADSVKGRFTISRDNAKNTVYLQMNSLKPEDTAVYYCNKDVRPAYRWYDYWGQDTQVTVSS", "polyreactivity (PSR sort gate)": "low polyreactivity"}
{"sequence": "QVQLVESGGGLVQAGGSLRLSCAASGRTFVWNVMGWYRQAPGKEREFVAAISGGSTYYADSVKGRFTISRDNAKNTVYLQMTSLKPEDTAVYYCAADSKLHPRYEYWGQGTQVTVSS", "polyreactivity (PSR sort gate)": "low polyreactivity"}
{"sequence": "QVQLVESGGGLVQAGGSLRLSCAASGRIFFANAMGWYRQAPGKERELVAAISWRGGSTYYADSVKGRFTISRDNAKNTFYLQMNSLKPEDTAVYYCNAVTRGYYHEMEYWGQGTQVTVSS", "polyreactivity (PSR sort gate)": "high polyreactivity"}
{"sequence": "QVQLVESGGGLVQSGGSLRLSCAASGSIFTPYSMGWYRQAPGKERELVAGISYRGGTTYYADSVKGRFTISRDNAKNTVYLQMNSLKPEDYAVYYCAAAASSPGGWFYYWGQGTQVTVSS", "polyreactivity (PSR sort gate)": "high polyreactivity"}
{"sequence": "QVQLVESGGGLVQAGGSLRLSCAASGSIFRYYAMGWYRQAPGKEREFVASITYRGGRTYYADSVKGRFTISRDNAKNTVYLQLNSLKPEDTAVYYCAARTRAGAWTSKYLDYWGQGTQVTVSS", "polyreactivity (PSR sort gate)": "high polyreactivity"}
{"sequence": "QVQLVESGGGLVQAGGSLRLSCAASVFTFWWYDMGWYIQAPGKERELVAAISRGGSTYYADSVKGRFTISRDNAKNTVNLQMNSLKPEDTAVYYCAADTTYGINRREYWGQGTQVTVSS", "polyreactivity (PSR sort gate)": "low polyreactivity"}
{"sequence": "KVQLVESGAGLVQAGGSLRLSCAAYGSIFVGYHMGWYRQAPGKERELVAGITGAGSTNYADSVKGRFTISRENAKNTVYLQMNSLKPEDTAVYYCAADYDTPQGTKYYYWGQGTKVTVSS", "polyreactivity (PSR sort gate)": "low polyreactivity"}
{"sequence": "QVQLVESGGGLVQAGGSLRLSCAASGSTFHRNTLGWYRQAPGKERELVAGISLRGVRTYYADSVKGRFTISRDNAKNSVYLQMNSLKPEDTAVYYCAALYYYGYDYWGQGTQVTVSS", "polyreactivity (PSR sort gate)": "high polyreactivity"}
{"sequence": "QGQLVESWGGLVQAGGSLRLSSDASGRTFSLYAMGWYRQAPGKQTELVASITDSTGGSTYYADSVKGRFTISRDNAKNTVYLQMNSLKPADTAVYYSAAQDYQYSDYQWWFGFWGQGTQVTVSS", "polyreactivity (PSR sort gate)": "low polyreactivity"}
{"sequence": "QVQLVESGGGLVQAGGILRLSCAASGSTFAVNAMGWYRQAPGKERELVAAISTSGGSTYYADSVKGRFTISRDNAKNTVYLQMNSLKPEDTSVYDCAAGRVRRRVWYNYWGQGTQVTVSS", "polyreactivity (PSR sort gate)": "high polyreactivity"}
{"sequence": "QVQLVESGGGLVQAGGSLRLRCAASGSTFRANAMGWYRQAPGKERELVAAISWSGGRTYYADSVKGRFTISRDNAKNTVYLQMNSLKPEDTAVYYCAAPKLTSYDSWGQGTQVTVSS", "polyreactivity (PSR sort gate)": "high polyreactivity"}
{"sequence": "QVQLVESAAGLVQAGGSLRLSCAPSGIIFGSYAMGWYRQEPGKESELVAAISRGTSTYYADSVKGRFTISRDNAKNTVYLQMNSLKPEDTAVYYCAATRQQYGPLSRFVYWYYYWGQGTQVTVSS", "polyreactivity (PSR sort gate)": "low polyreactivity"}
{"sequence": "QVQLVESGGGLVQAGGSLRLSCAASGLIFSKNVMGWYRQAPGKERELVAAISQRGGSTYYADSVKGRFTISRDNAKNTVYLQMNSLKPEDTAVYYCAADNTVSHEDYWGQGTQVTVSS", "polyreactivity (PSR sort gate)": "high polyreactivity"}
{"sequence": "QVQLVESGGGLVQAGGSLRLSCAASGITFKRYAMGWYRQAPRKERELVAAITTSGGSTYYADSVKGRFTNSRDNAKNTVYLLMNSLKPEDTAVNYCNAEDYWGKYYYWGQGTQVTVSS", "polyreactivity (PSR sort gate)": "low polyreactivity"}
{"sequence": "QVQLVESGGGLVQAGGSLRLSCAASGFTFADNAMGWYRQATGKERELVAAISWNGGRTFYADSVKGRFTISRDNAKNTVYLQMNSLKPEDSAVYYCNAVFIVRKYTGWSTGEGYWGQGTQVTVSS", "polyreactivity (PSR sort gate)": "high polyreactivity"}
{"sequence": "QVQLQESGGGLVQAGGSLRPSCAASGNIFVPFKMGWYRLAPGKEREHVASINRGSTTNYADSVKGRFTISRDNAKNTVYLQMISLKPEDTAVYYCAAIAYPDIPTYLDYDSDYFYWDQGTQVTVSS", "polyreactivity (PSR sort gate)": "high polyreactivity"}
{"sequence": "QVQLVESGGGLVQAGGSLSLSCAASGRIFSWYDMGWYRQAPGKERELVAAISSGGSTKYADSVKGRFTISRDNAKNTVYLQMNCLKPEDTAVYYCAARLPRRYTREGYWGQGTQVSVSS", "polyreactivity (PSR sort gate)": "high polyreactivity"}
{"sequence": "QVQLVESRGGLFQAGGSLRLSCAASGFIFRDNAMGWYRQAPGKERELVAAISKSGGRTYYADSVKGRFTISRDNAKNTVYLQMNSLKPEDTAVYYCAKVRYQGNGGYYWGQGTQVTVSS", "polyreactivity (PSR sort gate)": "high polyreactivity"}
{"sequence": "QVQLVESGGGLVQAGGSLRLSCAASGSTFWYYAMGWYRQAPGKERELVAAITSSGSTYYADSVKGRFTISRDNAKNTVYLQMYSLKPEDTAVYYCAAEQWYGYASYDYWGQGTQVTVSS", "polyreactivity (PSR sort gate)": "high polyreactivity"}
{"sequence": "QVQLVESGGGLVQAGGSLRLSSAASGRTFYGNAMGWYRQAPGKERELVATINYSGGSTYYADSVKGRFTISRDNAKNTVYLQMNSLKPEDTAVYYCAAVDPEEFDYWGQGTQVTVSS", "polyreactivity (PSR sort gate)": "low polyreactivity"}
{"sequence": "QVQLVESGGGLVQAGGSLRLSCAASGSIFGWYAMGWYRQAPGTERELVAAIRRGGSTNYADSVKGRFTISRDNAKNTVYLQMNSLKPEDTAVYYCAAGKSGYSKRIFRYSFDYWGQGTQVTVSS", "polyreactivity (PSR sort gate)": "high polyreactivity"}
{"sequence": "QGQLVESGGGLVQAGGSLRFSCAASGSTFRSYALGGYRQAPGKEWELVAAISGDGSTNYADSVKGRFTISRDNAKNPVYLQMNSLKPEDTAVYYCAKDPGYPAPYYDYYYWGQGTKVTVSS", "polyreactivity (PSR sort gate)": "low polyreactivity"}
{"sequence": "QVQLVESGGGLVQAGGSLRLSCAASGSIFEWYAMGWYRQAPGKDRELVADITYNGGSTYYADSVKGRFTISRDNAKNTVYLQMNSLKPEDTAVYYCAADYFVQVPDYYYASEYGYWGQGTQGTVSS", "polyreactivity (PSR sort gate)": "low polyreactivity"}
{"sequence": "QVQLVESGGGLVQAGGSLRLSCASSGSIFLYNAMGWYRQAPGKERELVAVINGRGGTYYADSVKGRFTISRDNAKNTVYLQMNSLKPEDTAVYYCATGFPPSAWYDSVRFEDRDSWGQGTQVTVSS", "polyreactivity (PSR sort gate)": "low polyreactivity"}
{"sequence": "QVQLVESGGGLVQAGGSLRLSSAASGLTFFTYTMGWYRQAPGKERELVATINSSGGTTYYADSVKGRFTISRDNAKNTVYLQMNSLKPEDTAVYFCAKRFSPRYYYWGQGTQVTVSS", "polyreactivity (PSR sort gate)": "high polyreactivity"}
{"sequence": "QVQLEGSGGGLVQAGGSLRLSCAASGSIFSTNAMGWYRKAPGKERELVASISSGGGSTYYADSVKGRFTISRDTAKKTVYLQMNSLKPEDTAVYYCARRIGHGSRPYWLETWRYPYEYWGQGTQVTVSS", "polyreactivity (PSR sort gate)": "low polyreactivity"}
{"sequence": "QVQLVESGGGVVQAGGSLRLICAATGSIFGYAMGWYRQAPGKERELVGAISFSGVSTYYADSVMGRFTISRDNAKNTVYLEMNSLKPEDTAVYYSNAYSDGDEDYWGQGTQGTVSS", "polyreactivity (PSR sort gate)": "low polyreactivity"}
{"sequence": "QVQLVESGGGLVQAGGSLRLSCAASGFIFSIYAMGWYRQAPGKERELVAGIDNGGGTYYADSVKGRFTISRDNAKNTVYLQMNSLKPEDTAVYYCAADTYSIGELYDYWGQGTQVTVSS", "polyreactivity (PSR sort gate)": "low polyreactivity"}
